In patent US6348311B1, “ATM kinase modulation for screening and therapies” (St. Jude Childre's Research Hospital, priority 1999, dated 2002):
Values belong to the compound of their own block, whether it stands above or below them. Where a SMILES comes first, the peptide text is derived from it. Where no end group is shown, it is not given here. [ ]: non-standard residue; d: D form. Nle = CCCC[C@H](N)C(=O)O

Key:
[1] = system: p53 phosphoserine 15; assay: p53 Ser15 phosphorylation in lymphoblasts (immunoprecipitation and immunoblot); assay type: cell-based, human; details: ALLN 90 min
Protocol: Posttranslational modification of p53 on Ser^15 in response to ionizing radiation. Monoclonal antibodies against a chemically synthesized p53 phosphoserine-15 peptide (amino acids 9-22) were used to immunoblot synthetic peptides (1×, 50 μg) consisting of the first 24 amino acids of p53 with (1-24^S15-P) or without (1-24) phosphoserine 15. Normal WT (2184) or AT (1526) lymphoblasts were untreated or treated with 5 Gy IR (IR) or 20 mM ALLN for 90 min. p53 was immunoprecipitated, subjected to SDS-PAGE (7.5% gel), transferred to nitrocellulose, and immunoblotted with the monoclonal antibody to phosphoserine 15 p53 (upper panel). Blots were then stripped and immunoblotted with antibodies to p53 (lower panel).
Normal (2184) and AT (1526) EBV immortalized human lymphoblasts were irradiated with a ^137Cs source or treated with 20 mm ALLN (Sigma) for 90 min. Cells were then harvested, lysed, and p53 was immunoprecipitated as described (Siliciano et al., Genes Dev., 11:3471, 1997). Immunoprecipitates were resolved by non-reducing SDS-PAGE, transferred to nitrocellulose and immunoblotted with monoclonal antibody to phosphoserine 15. Blots were stripped and reprobed with p53-specific monoclonal antibodies (Ab-2 and Ab-6).

[2] = system: ATM kinase; assay: ATM immunoprecipitated from SY5Y neuroblastoma cells after IGF-I, in vitro kinase assay with GST-p53; assay type: cell-based; details: differentiated SY5Y cells, 10nM IGF-I
Protocol: Since the growth factor and survival factor insulin-like growth factor (IGF)-I activates cellular signaling in a manner similar to insulin, the insulin observations above led us to also investigate whether IGF-I might activate ATM kinase. […] Undifferentiated and differentiated SY5Y cells were treated with IGF-I and ATM activation was assessed.
ATM was immunoprecipitated from either undifferentiated or differentiated SY5Y neuroblastoma cells after treatment with 10nM IGF-I (control cells were untreated). The immunoprecipitated ATM was then used in an in vitro kinase assay with the GST-p53 protein as the substrate. Equivalent amounts of ATM and GST-p53 were used.

[3] = system: ATM kinase; assay: ATM immunoprecipitated from differentiated 3T3-L1 cells with or without insulin, in vitro kinase assay with GST-4E-BP1; assay type: cell-based; details: GST-4E-BP1 substrate
From the text: ATM was immunoprecipitated from 3T3-L1 after differentiation and without (−) or with (+) exposure to insulin. The immunoprecipitated ATM was then used in an in vitro kinase assay with GST-4E-BP1 protein as the substrate. Equivalent amounts of ATM and GST-4E-BP1 were used.

[4] = system: 4E-BP1 bound to eIF-4E; assay: Insulin induced release of 4E-BP1 from eIF-4E in fibroblasts (Western blot); assay type: cell-based, mice
Protocol: Fibroblasts from normal or AT mice were treated with (+) or without (−) insulin and total cellular and complexed eIF-4E and 4E-BP1 were examined by Western blot. Total cellular eIF-4E and 4E-BP1 were unchanged by insulin treatment. The amount of 4E-BP1 bound to eIF-4E was examined by immunoprecipitating eIF-4E with a methyl-G column and then blotting for both proteins.

[5] = system: p95 Ser343 phosphorylation; assay: IR-induced phosphorylation of Myc-p95 on Ser343 in co-transfected 293T cells; assay type: cell-based; details: co-transfected with p95 into 293T cells, 5 Gy IR
From the text: FIGS. 4A and 4B. In vivo phosphorylation of p95 on ser343 by ATM upon ionizing irradiation. (A) Phosphorylation of p95 on Ser343 by IR in an ATM-dependent manner in vivo. […] The expression of Flag-ATM in each cell lysates was detected with anti-Flag antibody (top panel). Immunoprecipitated Myc-p95 was blotted with anti-a-p95-phosphoserine 343 antibody (middle panel) or anti-Myc antibody (lower panel). (B) Phosphorylation of endogenous p95 on Ser343 in normal cells, but not AT cells, after IR. Normal (WT, GM0536) or AT (GM1526) lymphoblasts were treated with either 0 (−) or 5 (+) Gy IR. Endogenous p95 was immunoprecipitated and blotted with anti-a-p95-phosphoserine 343 antibody (top panel) or anti-p95 antibody (lower panel).
In vivo phosphorylation of p95. Myc-tagged p95 (3 μg) was transiently co-transfected into 293T cells with wtATM, kdATM, or pCDNA3 (7μg) using calcium phosphate. After 2 days, cells were harvested and Myc-p95 was immunoprecipitated, subjected to SDS-PAGE (7.5%), transferred to nitrocelluose, and immunoblotted with α-cMyc antibody or the α-p95-phosphoserine 343 polyclonal mouse antibody. For metabolic labeling, the cells were washed with phosphate free RPMI plus 10% dialyzed fetal bovine serum and incubated for 30 min before irradiation. […] After electrophoresis in 7.5% SDS-PAGE, radiolabeled p95 and ATM were visualized and quantified on a PhosphorImager.

[6] = target: T1, ATM kinase (Homo sapiens, UniProt Q13315); assay: In vitro kinase assay, ATM with GST-peptide / GST-fusion substrates; assay type: biochemical; details: GST-peptide substrate; relative to the p53ser15 site;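 also: immunoprecipitated ATM incubated with [γ-32P]ATP at 30 °C for 20 min, substrates resolved by SDS-PAGE and radiolabel incorporation quantified by PhosphorImager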
T1 construct: The full-length cDNA encoding NH2-terminal, FLAG-tagged wild-type ATM; made in house; host or cells: 293T cells, transient transfection with pcDNA-FLAG-ATMwt, anti-FLAG M2 immunoprecipitate on beads

[7] = target: T2, ATR (Homo sapiens, UniProt Q13535); assay: In vitro kinase assay, ATR with GST-peptide / GST-fusion substrates; assay type: biochemical; details: GST-peptide substrate; relative to the p53ser15 site
T2 construct: made in house; host or cells: 293T cells, transient transfection with pBJF-FRPwt, anti-FLAG M2 immunoprecipitate
T2 sequence (Q13535 whole entry, the tested form may be a part): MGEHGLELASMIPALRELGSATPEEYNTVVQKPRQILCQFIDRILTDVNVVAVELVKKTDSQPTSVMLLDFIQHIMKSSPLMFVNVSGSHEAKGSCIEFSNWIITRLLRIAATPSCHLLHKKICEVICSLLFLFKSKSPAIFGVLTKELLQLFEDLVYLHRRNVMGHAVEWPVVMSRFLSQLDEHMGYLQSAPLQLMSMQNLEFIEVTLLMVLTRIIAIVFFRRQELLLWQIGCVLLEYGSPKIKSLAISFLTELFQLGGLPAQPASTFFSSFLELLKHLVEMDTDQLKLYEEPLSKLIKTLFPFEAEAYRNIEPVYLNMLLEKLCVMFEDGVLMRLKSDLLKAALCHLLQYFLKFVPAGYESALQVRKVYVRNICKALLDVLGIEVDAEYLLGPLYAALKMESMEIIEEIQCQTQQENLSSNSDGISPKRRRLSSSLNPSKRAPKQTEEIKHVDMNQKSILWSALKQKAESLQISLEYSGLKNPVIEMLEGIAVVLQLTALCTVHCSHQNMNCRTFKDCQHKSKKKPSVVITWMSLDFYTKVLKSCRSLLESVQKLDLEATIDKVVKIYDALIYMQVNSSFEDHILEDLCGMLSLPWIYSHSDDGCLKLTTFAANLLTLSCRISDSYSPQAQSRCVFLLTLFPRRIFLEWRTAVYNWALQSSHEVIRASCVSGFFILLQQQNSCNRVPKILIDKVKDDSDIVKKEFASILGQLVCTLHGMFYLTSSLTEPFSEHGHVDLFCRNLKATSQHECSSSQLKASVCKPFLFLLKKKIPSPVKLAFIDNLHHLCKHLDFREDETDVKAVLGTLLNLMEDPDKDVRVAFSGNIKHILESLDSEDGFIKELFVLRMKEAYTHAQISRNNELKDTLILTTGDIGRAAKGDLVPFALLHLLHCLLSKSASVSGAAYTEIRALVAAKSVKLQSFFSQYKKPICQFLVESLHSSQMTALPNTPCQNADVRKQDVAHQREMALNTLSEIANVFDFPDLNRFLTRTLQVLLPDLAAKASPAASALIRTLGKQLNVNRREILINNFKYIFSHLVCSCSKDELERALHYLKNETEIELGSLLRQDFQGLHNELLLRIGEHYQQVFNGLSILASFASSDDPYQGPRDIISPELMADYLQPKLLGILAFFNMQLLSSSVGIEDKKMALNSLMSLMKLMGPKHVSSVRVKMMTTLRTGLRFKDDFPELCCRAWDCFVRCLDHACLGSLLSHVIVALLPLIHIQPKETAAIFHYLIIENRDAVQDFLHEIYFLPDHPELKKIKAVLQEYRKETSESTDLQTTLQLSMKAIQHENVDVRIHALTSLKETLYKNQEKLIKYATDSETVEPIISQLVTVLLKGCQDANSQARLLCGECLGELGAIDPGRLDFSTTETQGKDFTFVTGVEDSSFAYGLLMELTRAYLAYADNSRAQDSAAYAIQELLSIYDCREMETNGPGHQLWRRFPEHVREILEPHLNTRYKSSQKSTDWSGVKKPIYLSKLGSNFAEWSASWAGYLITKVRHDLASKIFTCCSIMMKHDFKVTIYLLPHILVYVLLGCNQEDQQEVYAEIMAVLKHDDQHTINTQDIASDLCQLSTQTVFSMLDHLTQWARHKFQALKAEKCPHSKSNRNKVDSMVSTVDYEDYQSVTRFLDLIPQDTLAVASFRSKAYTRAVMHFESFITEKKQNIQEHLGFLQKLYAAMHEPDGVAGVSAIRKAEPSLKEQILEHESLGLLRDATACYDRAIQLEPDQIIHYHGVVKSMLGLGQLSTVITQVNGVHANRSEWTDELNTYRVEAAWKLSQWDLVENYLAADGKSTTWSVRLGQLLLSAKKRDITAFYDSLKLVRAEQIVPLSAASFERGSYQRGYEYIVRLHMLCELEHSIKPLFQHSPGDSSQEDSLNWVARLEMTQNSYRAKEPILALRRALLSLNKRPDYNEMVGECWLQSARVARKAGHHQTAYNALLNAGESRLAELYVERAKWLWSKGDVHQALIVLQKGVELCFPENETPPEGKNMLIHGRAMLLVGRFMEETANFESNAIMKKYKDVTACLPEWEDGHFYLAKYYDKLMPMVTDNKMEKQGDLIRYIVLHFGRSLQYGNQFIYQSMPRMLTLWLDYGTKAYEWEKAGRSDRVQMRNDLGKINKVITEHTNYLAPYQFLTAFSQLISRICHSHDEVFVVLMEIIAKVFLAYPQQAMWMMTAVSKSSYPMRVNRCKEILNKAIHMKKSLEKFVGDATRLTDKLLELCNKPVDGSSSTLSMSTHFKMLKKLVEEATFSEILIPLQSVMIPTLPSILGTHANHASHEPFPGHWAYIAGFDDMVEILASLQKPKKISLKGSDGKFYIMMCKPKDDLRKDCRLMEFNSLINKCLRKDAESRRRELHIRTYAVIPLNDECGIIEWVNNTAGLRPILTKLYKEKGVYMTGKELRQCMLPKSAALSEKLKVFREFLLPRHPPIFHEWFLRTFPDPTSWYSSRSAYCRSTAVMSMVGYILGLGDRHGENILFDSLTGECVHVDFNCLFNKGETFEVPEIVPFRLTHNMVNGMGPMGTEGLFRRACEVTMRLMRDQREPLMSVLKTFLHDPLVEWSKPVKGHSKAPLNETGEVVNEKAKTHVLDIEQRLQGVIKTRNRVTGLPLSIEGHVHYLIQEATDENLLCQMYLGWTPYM
Protocol: (§1) FIGS. 1A, 1B, and 1C. Phosphorylation of GST-p53 mutant peptides (amino acids 9-21) by ATM, ATR, and DNA-PK in vitro. In vitro kinase assays with immunoprecipitated, transfected flag-tagged ATM (A) or ATR (B) or purified DNA-PK (C) were performed with GST-p53 peptides containing the amino acid substitutions indicated. The amount of 32P-labeled GST-peptides was quantitated with a PhosphorImager and was normalized for each of the kinases to the level of phosphorylation of wild-type GST-p53.
(§2) FIGS. 2A, 2B, and 2C. Phosphorylation of candidate targets of by ATM, ATR and DNA-PK in vitro. GST-peptides containing the putative target sequences were used as substrates for the kinase assay.
Transfection and Kinase Activity Assays. 293T cells were transiently transfected with 10 μg of either pcDNA-FLAG-ATMwt, pcDNA-FLAG-ATMkd, pBJF-FRPwt or pBJF-FRPkd (Cliby et al., EMBO J., 17:159, 1998) using calcium phosphate and harvested two days later. Cells were lysed through sonication in TGN buffer [50 mM Tris (pH 7.5), 50 mM glycerophosphate, 150 mM NaCl, 10% glycerol, 1% Tween 20, 1 mM NaF, 1 mM NaVO4, 1 mM PMSF, […] Pepstatin A, 5 μg/ml leupeptin, 10 μg/ml Aprotinin and 1 mM DTT] as described (Brunn et al., Science, 277:99-101,1997). After centrifugation at 13,000 ×g, 2 mg of extract were incubated with mouse IgG and protein A/G sepharose beads (Calbiochem). FLAG-tagged proteins were then immunoprecipitated with anti-FLAG M2 monoclonal antibody (Eastman Kodak Company) and protein A/G sepharose beads. Immunoprecipitates were washed twice with TGN buffer, once with 100 mM Tris (pH 7.5) plus 0.5 M LiCl, and twice with kinase buffer [10 mM Hepes (pH 7.5), 50 mM glycerophosphate, 50 mM NaCl, 10 mM MgCl2, 10 mM MnCl2, 5 μM ATP, and 1 mM DTT]. Kinase reactions were initiated by resuspending washed beads in 30 μl of kinase buffer containing 10 μCi [γ-^32P]ATP and 1 μg GSTp531-101 and incubated for 30 minutes at 30° C. Proteins were electrophoretically separated by SDS-polyacrylamide gel electrophoresis, transferred to nitrocellulose, and analyzed on a PhosphorImager. FLAG-tagged proteins and GSTp531-101 were subjected to immunoblotting with either anti-FLAG M2 antibody or monoclonal antibodies directed towards the NH2-terminus of p53 (Ab-2 and Ab-6, Calbiochem) as described (Siliciano et al., Genes Dev., 11:3471, 1997).
Phosphorylation of Ser^15 of p53 by ATM and ATR/FRP1 in vitro. […] Proteins from each reaction were separated by SDS polyacrylamide gel electrophoresis (7% gel), transferred to nitrocellulose, and analyzed either on a PhosphorImager or by immunoblotting. Amounts of FLAG-tagged ATM or ATR in each kinase reaction were measured by immunoblotting with anti-FLAG M2 (top panel) and amount of [γ^32P]phosphate incorporated into ATM or ATR during the reaction (lower panel). […] An upper immunoreactive band represents phosphorylated GSTp53 fusion protein. The same exposures were used for ATM, ATR/FRP1 and corresponding substrate proteins.
(§3) Plasmids and GST-fusion protein production. For GST fusion peptide expression vectors, complementary oligonucleotides encoding desired peptides (14 amino acids) were cloned into the BamHI/SmaI site of pGEX-2T (Pharmacia). The constructs were confirmed by restriction enzyme digests and DNA sequencing. To construct the larger GST-p95 (327-391) protein fragment, p95 DNA encoding amino acids 327-391 was amplified by PCR with Pfu polymerase using the following primers: 5′ sense,
In vitro kinase assays and immunoprecipitation. […] Cleared supernatants were immunoprecipitated with anti-Flag M2 antibody and protein A/G agarose, the beads were washed with TGN buffer followed by TGN buffer plus 0.5 M LiCl, and two washes with kinase buffer [20 mM HEPES (pH 7.5), 50 mM NaCl, 10 mM MgCl2, 1 mM dithiothreitol (DTT) and 10 mM MnCl2]. […] ATP and […] of GST-fusion substrate (GST-p53:1-101), in varying concentration of Mn^2+. […]

[8] = target: DNA-PK (Homo sapiens, UniProt P78527); assay: In vitro kinase assay, purified DNA-PK with GST-peptide / GST-fusion substrates; assay type: biochemical; details: GST-peptide substrate; relative to the p53ser15 site
Protocol: as §1, §2, §3
In vitro kinase assays and immunoprecipitation. […] Cleared supernatants were immunoprecipitated with anti-Flag M2 antibody and protein A/G agarose, the beads were washed with TGN buffer followed by TGN buffer plus 0.5 M LiCl, and two washes with kinase buffer [20 mM HEPES (pH 7.5), 50 mM NaCl, 10 mM MgCl2, 1 mM dithiothreitol (DTT) and 10 mM MnCl2]. […] ATP and […] of GST-fusion substrate (GST-p53:1-101), in varying concentration of Mn^2+. The kinase reaction was conducted at 30° C. for 20 min and stopped by the addition of SDS-PAGE loading buffer. Proteins were separated on SDS-polyacrylamide gel electrophoresis (SDS-PAGE) and transferred to nitrocellulose. Radiolabeled proteins were visualized and quantitated on a Phosphorimager (Molecular Dynamics). Use of equivalent amounts of flag-tagged ATM or ATR in the different lanes was confirmed by immunoblotting with anti-flag antibody. In some reactions, either supercoiled DNA (pBluescript II KS, Stratagene) or linearized DNA (pBluescript II KS cut with EcoR1) was added ([…]). For endogenous ATM kinase reactions, endogenous ATM was immunoprecipitated from GM0536 lymphhoblasts with ATM monoclonal antibody (D16.11) in M buffer (PBS, 10% glycerol, 0.2% Tween 20, 0.3% NP-40, 1 mM NaF, 1 mM Na3VO4, 1 mM PMSF, 1x protease inhibitor mixture]. After washing with M buffer and kinase buffer, in vitro kinase reactions were carried out according to procedures described above. The DNA-PK in vitro kinase reaction was performed as previously described (Gottlieb and Jackson, 1993), using 20 ng each of DNA-PKcs or DNA-PK (20 ng DNA-PKcs premixed with 20 ng Ku 70/80).

Compound: CCCC[C@@H](C=O)NC(=O)[C@H](CC(C)C)NC(=O)[C@H](CC(C)C)NC(C)=O [ALLN, acetyl-Leu-Leu-norleucinal] (Ac-Leu-Leu-[Nle]-aldehyde)
effect on p53 protein ([1]; lymphoblasts): stabilization of p53 protein
Phosphoserine 15 of p53 ([1]; normal lymphoblasts): undetectable

Compound: IGF-I: insulin-like growth factor (IGF)-I, growth and neuronal survival factor
ATM kinase activity after IGF-I treatment [2]: significantly enhanced

Compound: Insulin: insulin
ATM kinase activity after insulin treatment [3]: significantly enhanced
release of 4E-BP1 from eIF-4E ([4]; AT cells (A38)): much less 4E-BP1 was released
release of 4E-BP1 from eIF-4E ([4]; normal cells (A29)): caused a release of 4E-BP1 from eIF-4E

Compound: kinase-inactive form of ATM: FLAG-tagged full-length ATM mutant D2870A and N2875K, kinase-dead, dominant-negative
IR-induced phosphorylation of p95ser343 [5]: significantly inhibited

Relative Phosphorylation (%) ATM [6]: 6%
Relative Phosphorylation (%) ATR [7]: 22%
Relative Phosphorylation (%) DNA-PK [8]: 44%
Compound: β3A Adaptin: GST-peptide ELKPVLSQG (SEQ ID NO:43), S1092 (not fully specified (N-terminus); also: GST fusion; listed as Homo sapiens)

Relative Phosphorylation (%) ATM [6]: 5%
Relative Phosphorylation (%) ATR [7]: 22%
Relative Phosphorylation (%) DNA-PK [8]: 2%
Compound: β-ADAPTIN: GST-peptide CRAPEVSQHVYQAY (SEQ ID NO:28), S935 (not fully specified (N-terminus); also: GST fusion; listed as Homo sapiens)
